Data published in paper PMC7772510.

Key:
complement fragment iC3b [1] = biological target: complement fragment iC3b (UniProt P01024); assay: ELISA
complement fragment iC3b [2] = biological target: complement fragment iC3b (UniProt P01024); assay: SPR

Row | Kd (complement fragment iC3b [1]) | Kd (complement fragment iC3b [2]) | Binder
1 | 1000 nM | 1060 nM | GST-αX I-domain (domain or fragment) RQEQDIVFLIDGSGSISSRNFATMMNFVRAVISQFQRPSTQFSLMQFSNKFQTHFTFEEFRRSSNPLSLLASVHQLQGFTYTATAIQNVVHRLFHASYGARRDAAKILIVITDGKKEGDSLDYKDVIPMADAAGIIRYAIGVGLAFQNRNSWKELNDIASKPSQEHIFKVEDFDALKDIQNQLKEKIFAIEG
2 | – | 2890 nM | GST-αX I-domain K242A/K243A (domain or fragment) RQEQDIVFLIDGSGSISSRNFATMMNFVRAVISQFQRPSTQFSLMQFSNKFQTHFTFEEFRRSSNPLSLLASVHQLQGFTYTATAIQNVVHRLFHASYGARRDAAKILIVITDGAAEGDSLDYKDVIPMADAAGIIRYAIGVGLAFQNRNSWKELNDIASKPSQEHIFKVEDFDALKDIQNQLKEKIFAIEG
3 | – | 560 nM | GST-αX I-domain K243S/E244H (domain or fragment) RQEQDIVFLIDGSGSISSRNFATMMNFVRAVISQFQRPSTQFSLMQFSNKFQTHFTFEEFRRSSNPLSLLASVHQLQGFTYTATAIQNVVHRLFHASYGARRDAAKILIVITDGKSHGDSLDYKDVIPMADAAGIIRYAIGVGLAFQNRNSWKELNDIASKPSQEHIFKVEDFDALKDIQNQLKEKIFAIEG
4 | – | 490 nM | GST-αX I-domain D249M (domain or fragment) RQEQDIVFLIDGSGSISSRNFATMMNFVRAVISQFQRPSTQFSLMQFSNKFQTHFTFEEFRRSSNPLSLLASVHQLQGFTYTATAIQNVVHRLFHASYGARRMAAKILIVITDGKKEGDSLDYKDVIPMADAAGIIRYAIGVGLAFQNRNSWKELNDIASKPSQEHIFKVEDFDALKDIQNQLKEKIFAIEG
